# Measurements taken from PMC7939478, “Development of a novel mammalian display system for selection of antibodies against membrane proteins” (The Journal of Biological Chemistry, 2020).
# B1: known anti-EpCAM scFv with a C-terminal HA tag (scFv, V domains shown)
# VH: VQLLEQSGAELVRPGTSVKISCKASGYAFTNYWLGWVKQRPGHGLEWIGDIFPGSGNIHYNEKFKGKATLTADKSSSTAYMQLSSLTFEDSAVYFCARLRNWDEPMDYWGQGTTVTVSS
# VL: ELVMTQSPSSLTVTAGEKVTMSCKSSQSLLNSGNQKNYLTWYQQKPGQPPKLLIYWASTRESGVPDRFTGSGSGTDFTLTISSVQAEDLAVYYCQNDYSYPLTFGAGTKLEIK
# notes: Cloned into the pSF lentivector used for the scFv library; also called control anti-EpCAM scFv; source: CHO–EpCAM cells, lentiviral transduction, secreted by the same cells that carry the target; not shown: HA, C-terminal, kept
# Molecular target: T1, human epithelial cell adhesion molecule (EpCAM) on CHO–EpCAM cells (Homo sapiens, UniProt P16422)
# T1 construct: BC014785.1, expressed on the surface of CHO cells; source: CHO-X cells, lentiviral transduction, doxycycline-inducible, on the cell surface (clone SP1D12)
# T1 sequence (P16422 24-314): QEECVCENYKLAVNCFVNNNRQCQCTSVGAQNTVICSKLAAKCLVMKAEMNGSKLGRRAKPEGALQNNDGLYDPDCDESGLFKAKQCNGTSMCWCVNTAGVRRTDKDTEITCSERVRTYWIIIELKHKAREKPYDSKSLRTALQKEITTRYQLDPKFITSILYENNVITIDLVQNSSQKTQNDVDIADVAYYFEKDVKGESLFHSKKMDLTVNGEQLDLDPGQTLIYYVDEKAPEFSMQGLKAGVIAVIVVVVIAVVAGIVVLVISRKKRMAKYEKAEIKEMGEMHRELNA
# Assay: flow cytometry on cells; self-labeling: CHO–EpCAM cells transduced with the HA-tagged scFv, cultured 3 days with or without doxycycline, stained with anti-HA-PE
# Conditions: partners not purified
binder,measurement,value
B1,fold increase in self-labeling signal (with against without doxycycline),> 100 fold
